{
  "source": "patent US20160367623A1",
  "about": "“AGONISTS OF GUANYLATE CYCLASE USEFUL FOR THE TREATMENT OF GASTROINTESTINAL DISORDERS, INFLAMMATION, CANCER AND OTHER DISORDERS” (priority 2015, published 2016)",
  "test_system": "patients with chronic idiopathic constipation (CIC)",
  "settings": "in vivo",
  "note": "Bridge positions count the residues as written; N and C are the ends. Ends that are not written are not given here.",
  "data": [
    {"substance": "Asn^1-Asp^2-Glu^3-Cys^4-Glu^5-Leu^6-Cys^7-Val^8-Asn^9-Val^10-Ala^11-Cys^12-Thr^13-Gly^14-Cys^15-Leu^16 (NDECELCVNVACTGCL; disulfide 4-12, 7-15) [Plecanatide]", "values": [
      {"measurement": "serum chemistries, hematology, urinalysis, ECG or vital signs", "value": "No clinically relevant abnormalities were observed"}
    ]}
  ]
}
